In patent US20100129806A1:

How the values were obtained:
[1] = molecular target: myc-IP6K2 E138-9A mutant (glutamates 138 and 139 mutated) (human) (UniProt Q9UHH9); assay: cell-based or functional assay
[2] = molecular target: myc-IP6K2 R133A mutant (human) (UniProt Q9UHH9); assay: cell-based or functional assay
myc-IP6K2 R133A mutant (human), sequence (Q9UHH9 whole entry R133A): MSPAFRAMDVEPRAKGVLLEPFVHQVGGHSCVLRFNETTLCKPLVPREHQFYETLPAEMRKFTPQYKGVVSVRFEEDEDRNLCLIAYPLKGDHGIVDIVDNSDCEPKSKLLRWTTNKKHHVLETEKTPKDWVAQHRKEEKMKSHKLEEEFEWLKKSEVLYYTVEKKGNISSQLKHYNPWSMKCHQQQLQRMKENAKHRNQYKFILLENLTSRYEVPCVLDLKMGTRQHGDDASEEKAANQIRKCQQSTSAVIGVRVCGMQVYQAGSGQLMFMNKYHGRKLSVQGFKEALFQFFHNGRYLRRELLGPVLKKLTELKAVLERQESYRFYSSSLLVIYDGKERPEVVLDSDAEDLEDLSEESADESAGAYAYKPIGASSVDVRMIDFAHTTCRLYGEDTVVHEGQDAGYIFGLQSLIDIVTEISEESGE

myc-IP6K2 E138-9A mutant (glutamates 138 and 139 mutated) (human), sequence (Q9UHH9 other isoform, or with tags, fused parts or gaps mutant): as the sequence (Q9UHH9 whole entry R133A) above, with A133R, E138A, E139A counted along it

## endogenous HSP90 of human cells (HEK 293, HeLa), also used purified from HeLa cells (from UniProt P07900 2-732)
[1]
  IP6K2 enzyme activity in vivo (fold of IP6K2wt): 2
  cell death of transfected HeLa cells (fold of wild type IP6K2): 5
[2]
  IP6K2 enzyme activity in vivo (fold of IP6K2wt): 2
  cell death of transfected HeLa cells (fold of wild type IP6K2): 5
